# Results: paper PMC4120242
# Biological target: endogenous FcγRI on human monocytes (human (endogenous in blood monocytes)) (UniProt P12314)
# Sequence of UniProt P12314 (P12314 16-374): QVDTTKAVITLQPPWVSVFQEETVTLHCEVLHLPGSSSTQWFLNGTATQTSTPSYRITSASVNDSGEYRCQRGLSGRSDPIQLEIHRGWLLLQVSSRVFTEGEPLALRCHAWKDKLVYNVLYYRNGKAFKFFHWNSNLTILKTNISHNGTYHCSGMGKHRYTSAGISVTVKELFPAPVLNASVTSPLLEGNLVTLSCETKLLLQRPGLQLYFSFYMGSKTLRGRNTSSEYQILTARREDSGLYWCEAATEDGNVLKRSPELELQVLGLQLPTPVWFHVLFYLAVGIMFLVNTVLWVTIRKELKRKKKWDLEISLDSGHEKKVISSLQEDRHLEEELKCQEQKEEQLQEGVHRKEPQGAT
substance,measurement,value
"Serum Amyloid P component (SAP), wildtype (from UniProt P02743 20-223) (natural protein)",IC50 of inhibition of fibrocyte differentiation of human PBMCs,2.9 nM
